Experimental data: patent publication US20240409645A1 (DUALYX, published 2024)

What was measured:
[1] = molecular target: T1, cynomolgus monkey IL-2Rα/CD25 subunit (cynomolgus monkey, UniProt H6WS54 22-213); experiment: ELISA, bivalent VHH-hFc
T1 construct: also called Cyno IL-2R subunit
T1 sequence: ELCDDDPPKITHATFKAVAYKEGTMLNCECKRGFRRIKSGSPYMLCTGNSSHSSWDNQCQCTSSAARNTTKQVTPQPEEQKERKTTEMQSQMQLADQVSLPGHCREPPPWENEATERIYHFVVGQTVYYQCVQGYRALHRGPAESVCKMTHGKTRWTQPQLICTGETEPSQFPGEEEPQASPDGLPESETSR
Method: (§1) Monospecific monovalent and bivalent IL-2Rα-, IL-2Rβ- and IL-2Rγ-specific antibodies that were selected on human IL-2R subunits, were evaluated for their cross-reactivity in an ELISA. Human and cynomolgus monkey receptor subunits (Acrobiosystems, KactusBiosystems) were coated at 1 μg/mL in PBS (pH 7.4) in a Maxisorp plate (Nunc) and incubated overnight at 4° C. The plates were further washed with PBS-Tween pH 7.4 and incubated with 1% cascin/PBS-Tween blocking solution for 1 hour shaking at 400 rpm. Subsequently, the plate was washed three times with PBS-Tween pH 7.4, after which the test antibodies diluted in 0.1% casein/PBS-Tween were added to the plate and incubated for 1 hour. The plate was again washed three times, after which goat anti-human IgG Fc (HRP) detection antibody (abcam) was added to the plate and incubated for 30 min. The colouring reaction was performed with TMB (Sigma-Aldrich) and stopped with 0.5N H₂SO₄.
(§2) Absorbance was measured at 450 nm with the reference wavelength of 620 nm using spectrophotometer. Final analysis and graphic output were performed with GraphPad Prism version 8 (GraphPad Software). The dose-response binding curves were fit to a nonlinear regression model (log (agonist) vs. response with a variable slope (four parameters)).

[2] = molecular target: T2, human interleukin-2 receptor α-chain (IL-2Rα; CD25), recombinant protein (human, UniProt P01589 22-240, limits assumed); experiment: ELISA, bivalent VHH-hFc
T2 construct: also called huIL2R-a; hIL-2RA
T2 sequence: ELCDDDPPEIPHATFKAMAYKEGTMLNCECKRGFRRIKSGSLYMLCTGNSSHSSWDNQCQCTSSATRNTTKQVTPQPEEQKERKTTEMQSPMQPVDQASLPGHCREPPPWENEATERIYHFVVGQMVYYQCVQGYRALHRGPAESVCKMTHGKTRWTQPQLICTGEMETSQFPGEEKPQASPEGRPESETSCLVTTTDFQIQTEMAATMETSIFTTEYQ
Method: as §1, §2

[3] = molecular target: T1, cynomolgus monkey IL-2Rα/CD25 subunit; experiment: ELISA, bivalent; EC50 cyno vs human subunit
Method: as §1, §2

[4] = molecular target: T3, human interleukin-2 receptor β-chain (IL-2Rβ; CD122), recombinant protein (human, UniProt P14784 27-240); experiment: ELISA, bivalent VHH-hFc
T3 construct: also called human IL-2R subunit CD122
T3 sequence: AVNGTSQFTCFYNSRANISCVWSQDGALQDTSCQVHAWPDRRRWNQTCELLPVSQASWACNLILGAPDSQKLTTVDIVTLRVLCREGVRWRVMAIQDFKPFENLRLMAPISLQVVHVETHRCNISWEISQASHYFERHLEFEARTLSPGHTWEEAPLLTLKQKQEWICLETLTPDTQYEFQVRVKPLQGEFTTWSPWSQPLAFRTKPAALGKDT
Method: as §1, §2

[5] = molecular target: T4, cynomolgus monkey IL-2Rβ/CD122 subunit (cynomolgus monkey, UniProt Q38J85 27-239, limits assumed); experiment: ELISA, bivalent VHH-hFc
T4 construct: also called Cyno IL-2R subunit
T4 sequence (looked up): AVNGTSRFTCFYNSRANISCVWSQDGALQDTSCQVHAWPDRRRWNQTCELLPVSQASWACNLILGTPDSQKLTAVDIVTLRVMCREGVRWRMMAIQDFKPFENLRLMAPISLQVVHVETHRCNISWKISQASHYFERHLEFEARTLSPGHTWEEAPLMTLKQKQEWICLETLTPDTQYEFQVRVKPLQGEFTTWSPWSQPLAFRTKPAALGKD
Method: as §1, §2

[6] = molecular target: T4, cynomolgus monkey IL-2Rβ/CD122 subunit; experiment: ELISA, bivalent; EC50 cyno vs human subunit
Method: as §1, §2

| Binder | EC50 [1] [pM] | EC50 [2] [pM] | Fold change [3] [fold] | binding result [1] | EC50 [4] [pM] | EC50 [5] [pM] | Fold change [6] [fold] | binding result [5] |
| --- | --- | --- | --- | --- | --- | --- | --- | --- |
| 1-MP01H01 VHH-hFc, monospecific bivalent (Fc fusion, IgG1 Fc LALA-PG; not shown: human IgG1 CH2 and CH3 domains (Fc)) EVQLVESGGGLVQAGGSLRLSCAASGRTFRTHNMGWFRRAPGKEREFVAAISWNVDNTLYADSVKGRFTISRDNGRNMVYLQMNSLKPEDTAVYYCAADNIPLSSDVAATATEYDYWGQGTQVTVSS | 61 | 52 | 1.2 | – | – | – | – | – |
| 92-MP05C07 VHH-hFc, monospecific bivalent (Fc fusion, IgG1 Fc LALA-PG; not shown: human IgG1 CH2 and CH3 domains (Fc)) QVQLVESGGGSVQAGGSLRLSCEASGRTLFSSYGMGWFRQAPGKEREFVGAISRFGTYTSYADPVKDRFTISRDNAKSTVYLQMNNTKPEDTAVYYCAAYTYSGSFYSTVKTHHDEYRYWGQGTQVTVSS | – | 47 | – | no binding | – | – | – | – |
| 15-MP02E06 VHH-hFc, monospecific bivalent (Fc fusion, IgG1 Fc LALA-PG; also called anti-IL-2Rβ Ab 15; not shown: human IgG1 CH2 and CH3 domains (Fc)) QVQLVESGGGSVQPGGSLRLSCAASGFTFSNYAMSWVRQAPGKGLEWVASITGFGRGTDYADSVKGRFTISRDNAEDTLYLQMNSLKPEDTAVYYCAKYSSSTYYPPTPARGRDYRGQGTQVTVSS | – | – | – | – | 209 | 895 | 4.3 | – |
| 16-MP02B08 VHH-hFc, monospecific bivalent (Fc fusion, IgG1 Fc LALA-PG; not shown: human IgG1 CH2 and CH3 domains (Fc)) EVQLVESGGGLVQAGGSLRLSCAASGRAIENYPVGWFRQAPGKEREFVAAITWISGSTLYADSVKGRFTISRDNAKNTVYLQMSSLKPEDTALYYCAAALKTITRGQNDYSYWGQGTQVTVSS | – | – | – | – | 245 | 230 | 0.9 | – |
| 17-MP02C09 VHH-hFc, monospecific bivalent (Fc fusion, IgG1 Fc LALA-PG; also called anti-IL-2Rβ Ab 17; not shown: human IgG1 CH2 and CH3 domains (Fc)) QVQLQESGGGLVQAGGSLRLSCVASGSVSSINGMAWYRQGADNQRVLVAAISRVGNTAYGDSVKGRFTISRQNARNTVYLQMNSLKPEDTAVYYCNADSWGGDDYWGQGTQVTVSS | – | – | – | – | 124 | 184 | 1.5 | – |
| 18-MP03C03 VHH-hFc, monospecific bivalent (Fc fusion, IgG1 Fc LALA-PG; not shown: human IgG1 CH2 and CH3 domains (Fc)) QVQLVESGGGLVQPGGSLRLSCAISGGTLDSYGIGWVRQAPGKQREGVSCMSRSDDRTYYADSVKGRFTISKDSAKNTVYLQMTSLKPEDTAVYYCAAVDAYGCSLVQPTTYDFWGLGTQVTVSS | – | – | – | – | 294 | 300 | 1 | – |
| 19-MP03F08 VHH-hFc, monospecific bivalent (Fc fusion, IgG1 Fc LALA-PG; not shown: human IgG1 CH2 and CH3 domains (Fc)) EVQLVESGGGLVQTGGSLRLSCAASGGTFSRDAMAWFRQVPGKEREFVALISWSGATTNYADSVKGRFAISRDNGKNTVYLQMNRLKPADTAIYYCAADRRPMGSRSYFEPTEYDDWGQGTQVTVSS | – | – | – | – | 794 | 603 | 0.8 | – |
| 20-MP03F10 VHH-hFc, monospecific bivalent (Fc fusion, IgG1 Fc LALA-PG; not shown: human IgG1 CH2 and CH3 domains (Fc)) EVQLVESGGGLVQAGGSLRLSCAASGRDFSSYAMGWFRQAPGKEREFVVAITWTKRSTDFPDSVKGRFTISRDNAKNTVYLDMNSLKPEDTAVYYCASARGLPVTPLGDIIYWGEGTLVTVSS | – | – | – | – | 218 | – | – | no binding |
| 22-MP03F12 VHH-hFc, monospecific bivalent (Fc fusion, IgG1 Fc LALA-PG; not shown: human IgG1 CH2 and CH3 domains (Fc)) EVQLVESGGGLVQAGGSLRLSCAASGSIFSINAMAWFRQVPGMERELVAAISRDGGASVYRDSVKGRFTISRDNSKNTVYLQMNTLKPEDTAIYVCAATRAIGWTARWITTDFDFWGQGTQVTVSS | – | – | – | – | 124 | 122 | 1 | – |
| 23-MP06F03 VHH-hFc, monospecific bivalent (Fc fusion, IgG1 Fc LALA-PG; not shown: human IgG1 CH2 and CH3 domains (Fc)) QVQLVESGGGLVQAGGSLRLSCAVSGDVFVRYTMAWFRQAPGKEREFVASVTDSGRTTDYVHSVKGRFTVSRDNAKNTVYLQMNNLKPEDTAVYYCAANTDYFQIKSLDANTWGQGTQVTVSS | – | – | – | – | 125 | 157 | 1.3 | – |
| 26-MP06A07 VHH-hFc, monospecific bivalent (Fc fusion, IgG1 Fc LALA-PG; not shown: human IgG1 CH2 and CH3 domains (Fc)) QVQLQESGGGLVQAGGSLRLSCAASGDVFVRYTMAWFRQAPGKEREFVASVTDSGRTTEYVDSVKGRFTVSRDNAKNTAYLQMNNLKPEDTAIYYCAANTDYFQIRSLDLNTWGQGTQVTVSS | – | – | – | – | 117 | 138 | 1.2 | – |
| 24-MP06E05 VHH-hFc, monospecific bivalent (Fc fusion, IgG1 Fc LALA-PG; not shown: human IgG1 CH2 and CH3 domains (Fc)) QVQLVESGGELVQGGASLRLSCAASGRTFSNANMAWFRQAPEKEREFVALITWSSGSTLYADSVKGRFTISRDNARKMVYLQMNSLKPEDTAVYYCAADGPPYSGTYYRYDTYDYWGQGTQVTVSS | – | – | – | – | 191 | 265 | 1.4 | – |
| 115-MP02E01 VHH-hFc, monospecific bivalent (Fc fusion, IgG1 Fc LALA-PG; not shown: human IgG1 CH2 and CH3 domains (Fc)) EVQLVESGGGLVQIGGSLRLSCAASGRTFSSITMAYFRQVPGKEREWVAGINFSGTRTFYADSVKGRFLISRDDAKSTMYLQMNSLKPEDTAVYYCAASPRGFYGPGNALYDYWGQGTQVTVSS | – | – | – | – | 60 | 60 | 1 | – |
| 126-MP02A03 VHH-hFc, monospecific bivalent (Fc fusion, IgG1 Fc LALA-PG; not shown: human IgG1 CH2 and CH3 domains (Fc)) QVQLVESGGGLVQPGGSLRLSCAASGFTFSNYAMSWVRQAPGKGLEWVSSITGAGRGTYYAESVKGRFTISRDNDKNTLYLQMNSLKPEDTAVYYCAKYDSSTFYPPTPARGIADRGQGTRVTVSS | – | – | – | – | 90 | 65 | 0.7 | – |
| 161-MP02C08 VHH-hFc, monospecific bivalent (Fc fusion, IgG1 Fc LALA-PG; not shown: human IgG1 CH2 and CH3 domains (Fc)) EVQLVESGGGLVQAGGSLRLSCAASGSTFSRQPMYWFRQAPGKEREFVAAITWSGRGTLYADSVEGRFTISRDNAKNTVYLQMNSLRPDDTAAYYCAAGPYGDAAYRHGRIDSWGQGTQVTVSS | – | – | – | – | 84 | 157 | 1.9 | – |
| 166-MP02H08 VHH-hFc, monospecific bivalent (Fc fusion, IgG1 Fc LALA-PG; not shown: human IgG1 CH2 and CH3 domains (Fc)) EVQLVESGGGLVQAGDSLRISCAASGRIFSNYAMGWFRQAPGKETEFVAGITHLTSTTHYADSVKGRFTISRDNAKNTMHLQMNNLKPEDTALYYCAADRNIKITADWSYWGQGTQVTVAS | – | – | – | – | 85 | 105 | 1.2 | – |
| 168-MP02B09 VHH-hFc, monospecific bivalent (Fc fusion, IgG1 Fc LALA-PG; not shown: human IgG1 CH2 and CH3 domains (Fc)) EVQLVESGGGLVQAGGSLRLSCAASGRTFSTTEMGWFRQAPGKEREFVAAITWTGRGTMYAESVEGRFTISRENAKNMVYLQMNSLKPEDTAIYYCAAARRGRAAVRSEGGYDFWGQGTQVTVSS | – | – | – | – | 53 | 127 | 2.4 | – |
| 184-MP02E11 VHH-hFc, monospecific bivalent (Fc fusion, IgG1 Fc LALA-PG; not shown: human IgG1 CH2 and CH3 domains (Fc)) QVQLQESGGGLVQAGGSLRLSCAASGRTFSNYVMAWFRQAPGKEREFVGAITQTGRGTFYADSVEGRFTISRINDKNTVYLQMNSLKPEDTAVYYCSAPRSGRAGTRNQMDYEYWGQGTQVTVSS | – | – | – | – | 59 | 74 | 1.3 | – |
| 189-MP02B12 VHH-hFc, monospecific bivalent (Fc fusion, IgG1 Fc LALA-PG; not shown: human IgG1 CH2 and CH3 domains (Fc)) QVQLVESGGGLVQAGGSLRLSCAASGRADSNAIMAWFRQAPGKEREFIVAVTYSGMPTYQDDSVQGRFTASRDNAKNTVYLQMNSLKPEDTAVYYCAARMYSASTYYGDYDYWGQGTQVTVSS | – | – | – | – | 53 | 66 | 1.3 | – |
| 193-MP02F12 VHH-hFc, monospecific bivalent (Fc fusion, IgG1 Fc LALA-PG; not shown: human IgG1 CH2 and CH3 domains (Fc)) QLQLVESGGGLVQTGTSLRLSCAASGHTSRINAMGWFRQFPGKEREFVAAISRNGGSTVYVDSVKGRFTISRDNAKSTVYLQMNSLKPEDTAVYYCTATDAVGWTTRWMTADFGFWGQGTQVTVSS | – | – | – | – | 87 | 99 | 1.1 | – |
| 297-MP06A08 VHH-hFc, monospecific bivalent (Fc fusion, IgG1 Fc LALA-PG; not shown: human IgG1 CH2 and CH3 domains (Fc)) EVQLVESGGGLVQAGESLRLSCAASGQYFSTYSMAWFRRTPGKEREFVTIISESGGIKEYVDSVKGRFTVSRDNAKNTVYLQMNSLKPEDTAVYYCAAARDWFARNEYQYDYWGQGTQVTVSS | – | – | – | – | 79 | 90 | 1.2 | – |
